Source: patent publication US20160058880A1 (LIFE SCIENCES RESEARCH PARTNERS VZW, published 2016)
Numbered stars: 1 amine (or outer) side, 2 acyl side, 3 side chain; on linkers, the order of the positions; unused ones are H or OH. Square brackets hold non-standard residues; d marks the D form. * marks the point of attachment. Doxorubicin(3'-N) = COc1cccc2c1C(=O)c1c(O)c3c(c(O)c1C2=O)C[C@@](O)(C(=O)CO)C[C@@H]3O[C@H]1C[C@H](N*)[C@H](O)[C@H](C)O1; Phosphonoacetyl = O=C(CP(=O)(O)O)*; Suc = O=C(CCC(=O)[*:2])[*:1]; βAla = NCCC(=O)O

Key:
[1] = target: TOP (recombinant human thimet oligopeptidase, R&D systems, Ref 3439-ZN) (human, UniProt P52888 1-689, limits assumed); assay: cell-based or functional assay
[2] = target: CD10 (recombinant human neprilysin, R&D systems, Ref 1182-ZN) (human, UniProt P08473 53-750); assay: cell-based or functional assay
CD10 (recombinant human neprilysin, R&D systems, Ref 1182-ZN), sequence (P08473 53-750 limits assumed): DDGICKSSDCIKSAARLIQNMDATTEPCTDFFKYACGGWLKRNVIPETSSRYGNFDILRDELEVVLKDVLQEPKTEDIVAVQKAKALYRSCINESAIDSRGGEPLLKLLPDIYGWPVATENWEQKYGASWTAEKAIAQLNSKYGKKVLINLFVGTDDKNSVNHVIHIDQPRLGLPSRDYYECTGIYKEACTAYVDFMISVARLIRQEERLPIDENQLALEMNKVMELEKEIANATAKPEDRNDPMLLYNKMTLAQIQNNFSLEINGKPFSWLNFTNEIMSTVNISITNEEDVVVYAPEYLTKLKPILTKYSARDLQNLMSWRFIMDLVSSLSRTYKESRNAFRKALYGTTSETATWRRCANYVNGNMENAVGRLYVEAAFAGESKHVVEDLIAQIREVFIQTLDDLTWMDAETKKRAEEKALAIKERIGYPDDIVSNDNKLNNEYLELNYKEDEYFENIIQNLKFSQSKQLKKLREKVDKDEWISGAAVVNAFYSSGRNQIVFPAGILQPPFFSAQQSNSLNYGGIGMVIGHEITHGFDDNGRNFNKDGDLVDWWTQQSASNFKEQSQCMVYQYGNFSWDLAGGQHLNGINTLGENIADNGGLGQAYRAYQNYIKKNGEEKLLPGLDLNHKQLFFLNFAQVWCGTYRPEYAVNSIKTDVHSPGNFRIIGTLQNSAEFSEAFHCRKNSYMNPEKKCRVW

TOP (recombinant human thimet oligopeptidase, R&D systems, Ref 3439-ZN), sequence (P52888 whole entry): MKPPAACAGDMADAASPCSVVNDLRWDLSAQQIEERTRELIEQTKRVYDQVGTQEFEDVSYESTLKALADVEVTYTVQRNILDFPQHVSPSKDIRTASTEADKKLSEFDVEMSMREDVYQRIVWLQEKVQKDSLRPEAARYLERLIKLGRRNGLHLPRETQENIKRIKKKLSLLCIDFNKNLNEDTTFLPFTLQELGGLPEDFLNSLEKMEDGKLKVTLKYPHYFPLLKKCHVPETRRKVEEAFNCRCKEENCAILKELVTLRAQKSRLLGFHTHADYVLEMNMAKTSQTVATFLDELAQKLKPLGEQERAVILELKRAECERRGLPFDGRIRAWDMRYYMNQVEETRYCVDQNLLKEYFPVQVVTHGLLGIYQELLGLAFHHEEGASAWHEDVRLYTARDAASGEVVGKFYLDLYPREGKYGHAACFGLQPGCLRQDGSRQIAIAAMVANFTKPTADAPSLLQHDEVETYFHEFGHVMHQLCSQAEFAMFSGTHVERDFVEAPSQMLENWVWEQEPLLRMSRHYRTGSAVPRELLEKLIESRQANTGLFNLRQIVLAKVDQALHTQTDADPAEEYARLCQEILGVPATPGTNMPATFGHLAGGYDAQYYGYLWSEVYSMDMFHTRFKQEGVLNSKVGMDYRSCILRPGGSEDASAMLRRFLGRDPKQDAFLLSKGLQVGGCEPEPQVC

B1: PhAc-GPGP-doxorubicin (peptide)
peptide: Phosphonoacetyl-GPGP-{Doxorubicin(3'-N)}
SMILES: COc1cccc2c1C(=O)c1c(O)c3c(c(O)c1C2=O)C[C@@](O)(C(=O)CO)C[C@@H]3O[C@H]1C[C@H](NC(=O)[C@@H]2CCCN2C(=O)CNC(=O)[C@@H]2CCCN2C(=O)CNC(=O)CP(=O)(O)O)[C@H](O)[C@H](C)O1
% Metabolites released after 3 h with TOP 5 nM [1]: 0%
% Metabolites released after 3 h with CD10 10 nM [2]: 0%

B2: PhAc-TSGP-doxorubicin (peptide)
peptide: Phosphonoacetyl-TSGP-{Doxorubicin(3'-N)}
SMILES: COc1cccc2c1C(=O)c1c(O)c3c(c(O)c1C2=O)C[C@@](O)(C(=O)CO)C[C@@H]3O[C@H]1C[C@H](NC(=O)[C@@H]2CCCN2C(=O)CNC(=O)[C@H](CO)NC(=O)[C@@H](NC(=O)CP(=O)(O)O)[C@@H](C)O)[C@H](O)[C@H](C)O1
% Metabolites released after 3 h with TOP 5 nM (GP-Dox) [1]: 38%
% Metabolites released after 3 h with CD10 10 nM [2]: 0%

B3: PhAc-ALPF-doxorubicin (peptide)
peptide: Phosphonoacetyl-ALPF-{Doxorubicin(3'-N)}
SMILES: COc1cccc2c1C(=O)c1c(O)c3c(c(O)c1C2=O)C[C@@](O)(C(=O)CO)C[C@@H]3O[C@H]1C[C@H](NC(=O)[C@H](Cc2ccccc2)NC(=O)[C@@H]2CCCN2C(=O)[C@H](CC(C)C)NC(=O)[C@H](C)NC(=O)CP(=O)(O)O)[C@H](O)[C@H](C)O1
% Metabolites released after 3 h with CD10 10 nM [2]: 0%

B4: Succinyl-βALPF-doxorubicin (peptide)
peptide: Suc-[βAla]LPF-doxorubicin
% Metabolites released after 3 h with TOP 5 nM [1]: 0%

B5: PhAc-KLGP-doxorubicin (peptide)
peptide: Phosphonoacetyl-KLGP-{Doxorubicin(3'-N)}
SMILES: COc1cccc2c1C(=O)c1c(O)c3c(c(O)c1C2=O)C[C@@](O)(C(=O)CO)C[C@@H]3O[C@H]1C[C@H](NC(=O)[C@@H]2CCCN2C(=O)CNC(=O)[C@H](CC(C)C)NC(=O)[C@H](CCCCN)NC(=O)CP(=O)(O)O)[C@H](O)[C@H](C)O1
% Metabolites released after 3 h with TOP 5 nM (GP-Dox) [1]: 31%

B6: PhAc-ALGP-doxorubicin (peptide)
peptide: Phosphonoacetyl-ALGP-{Doxorubicin(3'-N)}
SMILES: COc1cccc2c1C(=O)c1c(O)c3c(c(O)c1C2=O)C[C@@](O)(C(=O)CO)C[C@@H]3O[C@H]1C[C@H](NC(=O)[C@@H]2CCCN2C(=O)CNC(=O)[C@H](CC(C)C)NC(=O)[C@H](C)NC(=O)CP(=O)(O)O)[C@H](O)[C@H](C)O1
% Metabolites released after 3 h with TOP 5 nM (GP-Dox) [1]: 72%

B7: PhAc-DLGP-doxorubicin (peptide)
peptide: Phosphonoacetyl-DLGP-{Doxorubicin(3'-N)}
SMILES: COc1cccc2c1C(=O)c1c(O)c3c(c(O)c1C2=O)C[C@@](O)(C(=O)CO)C[C@@H]3O[C@H]1C[C@H](NC(=O)[C@@H]2CCCN2C(=O)CNC(=O)[C@H](CC(C)C)NC(=O)[C@H](CC(=O)O)NC(=O)CP(=O)(O)O)[C@H](O)[C@H](C)O1
% Metabolites released after 3 h with TOP 5 nM [1]: 0%
% Metabolites released after 3 h with CD10 10 nM [2]: 0%

B8: PhAc-AIGP-doxorubicin (peptide)
peptide: Phosphonoacetyl-AIGP-{Doxorubicin(3'-N)}
SMILES: CC[C@H](C)[C@H](NC(=O)[C@H](C)NC(=O)CP(=O)(O)O)C(=O)NCC(=O)N1CCC[C@H]1C(=O)N[C@H]1C[C@H](O[C@H]2C[C@](O)(C(=O)CO)Cc3c(O)c4c(c(O)c32)C(=O)c2c(OC)cccc2C4=O)O[C@@H](C)[C@H]1O
% Metabolites released after 3 h with TOP 5 nM (GP-Dox) [1]: < 5%
